Experiments:
AncSZ = experiment: phosphorylation enrichment, bacterial display (enrichment ratio); higher = better substrate or ligand; peptides without Tyr show the background
EPHB1 = EPHB1 (UniProt P54762); experiment: as above
EPHB2 = EPHB2 (UniProt P29323); experiment: as above
FGFR1 = FGFR1 (UniProt P11362); experiment: as above
FGFR3 = FGFR3 (UniProt P22607); experiment: as above
Fer (mouse) = experiment: as above
Fes = Fes (UniProt P07332); experiment: as above
Fyn = Fyn (UniProt P06241); experiment: as above
Chain of Fyn (P06241 whole entry, looked up): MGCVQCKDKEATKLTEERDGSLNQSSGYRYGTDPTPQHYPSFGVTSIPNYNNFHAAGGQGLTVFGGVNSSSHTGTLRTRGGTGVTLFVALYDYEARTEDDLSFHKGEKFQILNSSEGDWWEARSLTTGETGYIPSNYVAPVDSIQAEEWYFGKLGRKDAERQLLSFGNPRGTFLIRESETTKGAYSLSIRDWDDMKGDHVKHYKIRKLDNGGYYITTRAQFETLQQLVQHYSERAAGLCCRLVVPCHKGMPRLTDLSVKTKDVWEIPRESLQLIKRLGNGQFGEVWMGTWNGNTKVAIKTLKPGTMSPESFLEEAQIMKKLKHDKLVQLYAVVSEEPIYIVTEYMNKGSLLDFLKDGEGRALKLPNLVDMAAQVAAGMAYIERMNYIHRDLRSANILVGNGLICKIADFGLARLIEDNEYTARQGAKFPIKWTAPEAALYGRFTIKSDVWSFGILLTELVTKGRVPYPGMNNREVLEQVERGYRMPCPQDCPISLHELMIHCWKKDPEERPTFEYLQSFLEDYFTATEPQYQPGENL

Hck = Hck (UniProt P08631); experiment: as above
Chain of Hck (P08631 whole entry, looked up): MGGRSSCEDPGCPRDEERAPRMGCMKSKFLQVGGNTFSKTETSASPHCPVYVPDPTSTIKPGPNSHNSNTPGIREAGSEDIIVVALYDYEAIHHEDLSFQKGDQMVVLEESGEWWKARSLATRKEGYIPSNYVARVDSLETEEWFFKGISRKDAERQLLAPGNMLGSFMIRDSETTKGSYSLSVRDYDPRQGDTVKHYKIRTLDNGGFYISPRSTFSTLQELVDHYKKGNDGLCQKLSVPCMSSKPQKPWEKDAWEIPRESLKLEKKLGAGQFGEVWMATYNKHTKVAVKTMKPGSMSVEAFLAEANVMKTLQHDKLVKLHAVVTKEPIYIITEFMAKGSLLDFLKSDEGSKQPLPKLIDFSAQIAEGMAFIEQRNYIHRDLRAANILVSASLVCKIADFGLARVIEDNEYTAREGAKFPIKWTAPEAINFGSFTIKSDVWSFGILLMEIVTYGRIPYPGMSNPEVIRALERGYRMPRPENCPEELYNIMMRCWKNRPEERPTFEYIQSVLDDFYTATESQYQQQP

Jak2 = Jak2 (UniProt O60674); experiment: as above
Chain of Jak2 (O60674 whole entry, looked up): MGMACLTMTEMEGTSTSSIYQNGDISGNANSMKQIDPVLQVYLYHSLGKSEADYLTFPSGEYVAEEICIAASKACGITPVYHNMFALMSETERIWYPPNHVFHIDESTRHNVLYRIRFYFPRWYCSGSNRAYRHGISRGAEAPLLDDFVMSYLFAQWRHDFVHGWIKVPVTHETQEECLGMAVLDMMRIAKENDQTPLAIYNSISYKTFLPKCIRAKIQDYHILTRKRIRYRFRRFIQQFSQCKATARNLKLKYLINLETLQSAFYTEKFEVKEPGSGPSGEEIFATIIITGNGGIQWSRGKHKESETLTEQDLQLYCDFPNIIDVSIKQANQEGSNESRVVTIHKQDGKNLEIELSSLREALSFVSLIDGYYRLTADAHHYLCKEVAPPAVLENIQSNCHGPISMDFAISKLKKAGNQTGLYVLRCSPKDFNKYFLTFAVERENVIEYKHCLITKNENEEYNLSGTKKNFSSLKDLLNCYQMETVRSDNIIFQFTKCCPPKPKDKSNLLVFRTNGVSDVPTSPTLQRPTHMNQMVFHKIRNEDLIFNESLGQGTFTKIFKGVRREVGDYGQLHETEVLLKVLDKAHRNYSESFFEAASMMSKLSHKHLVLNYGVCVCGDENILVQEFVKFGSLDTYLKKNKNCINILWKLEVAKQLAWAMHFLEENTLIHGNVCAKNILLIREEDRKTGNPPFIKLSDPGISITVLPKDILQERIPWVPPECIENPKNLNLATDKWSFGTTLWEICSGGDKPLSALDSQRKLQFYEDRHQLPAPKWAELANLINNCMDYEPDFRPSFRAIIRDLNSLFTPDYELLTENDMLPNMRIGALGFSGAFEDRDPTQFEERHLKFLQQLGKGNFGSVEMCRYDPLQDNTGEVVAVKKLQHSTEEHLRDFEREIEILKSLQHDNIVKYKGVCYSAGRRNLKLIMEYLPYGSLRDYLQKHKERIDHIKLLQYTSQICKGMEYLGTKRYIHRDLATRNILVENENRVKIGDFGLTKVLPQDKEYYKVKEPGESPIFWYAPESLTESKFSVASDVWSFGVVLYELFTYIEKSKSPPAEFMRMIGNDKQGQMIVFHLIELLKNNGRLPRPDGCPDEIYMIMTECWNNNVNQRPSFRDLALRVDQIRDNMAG

MERTK = MERTK (UniProt Q12866); experiment: as above
Chain of MERTK (Q12866 whole entry, looked up): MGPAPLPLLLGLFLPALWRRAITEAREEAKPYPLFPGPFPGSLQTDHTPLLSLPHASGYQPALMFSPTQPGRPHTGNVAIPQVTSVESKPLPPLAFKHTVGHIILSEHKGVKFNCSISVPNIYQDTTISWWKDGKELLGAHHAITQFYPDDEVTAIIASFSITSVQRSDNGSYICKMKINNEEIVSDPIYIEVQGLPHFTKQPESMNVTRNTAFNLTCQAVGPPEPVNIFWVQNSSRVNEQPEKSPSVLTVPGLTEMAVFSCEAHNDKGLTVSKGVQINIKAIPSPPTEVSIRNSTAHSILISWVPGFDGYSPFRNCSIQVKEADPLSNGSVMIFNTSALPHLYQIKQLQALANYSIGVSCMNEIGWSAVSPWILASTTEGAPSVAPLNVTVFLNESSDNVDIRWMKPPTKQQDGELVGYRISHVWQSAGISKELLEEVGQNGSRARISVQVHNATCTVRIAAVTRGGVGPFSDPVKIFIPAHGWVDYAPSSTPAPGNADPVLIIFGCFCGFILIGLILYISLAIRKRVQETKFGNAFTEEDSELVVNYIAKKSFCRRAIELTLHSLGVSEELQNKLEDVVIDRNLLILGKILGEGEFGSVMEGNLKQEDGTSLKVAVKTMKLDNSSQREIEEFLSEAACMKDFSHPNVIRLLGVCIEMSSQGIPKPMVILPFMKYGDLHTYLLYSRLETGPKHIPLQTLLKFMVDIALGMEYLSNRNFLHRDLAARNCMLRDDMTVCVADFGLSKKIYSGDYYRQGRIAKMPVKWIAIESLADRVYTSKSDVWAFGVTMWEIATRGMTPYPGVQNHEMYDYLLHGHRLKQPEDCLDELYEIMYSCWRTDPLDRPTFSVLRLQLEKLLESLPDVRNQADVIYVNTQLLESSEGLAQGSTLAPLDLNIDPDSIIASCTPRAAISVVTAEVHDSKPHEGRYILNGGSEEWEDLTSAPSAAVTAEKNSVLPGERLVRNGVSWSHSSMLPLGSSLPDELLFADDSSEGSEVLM

c-Abl (mouse) = experiment: as above
c-Src = experiment: as above
Grb2 SH2 = Grb2 SH2 (UniProt P62993); experiment: SH2 binding enrichment of the phosphorylated peptide, bacterial display (enrichment ratio); higher = better substrate or ligand; peptides without Tyr show the background
Chain of Grb2 SH2 (P62993 whole entry, looked up): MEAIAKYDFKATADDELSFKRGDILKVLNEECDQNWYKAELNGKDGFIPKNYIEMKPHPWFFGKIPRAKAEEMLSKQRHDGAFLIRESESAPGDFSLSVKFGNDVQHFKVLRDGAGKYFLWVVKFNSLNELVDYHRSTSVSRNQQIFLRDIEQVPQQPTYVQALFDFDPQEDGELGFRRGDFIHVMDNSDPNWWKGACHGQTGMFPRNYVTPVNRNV

SHP2-C SH2 = experiment: as above
c-Src SH2 = experiment: as above
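For SH2 binding enrichment of the phosphorylated peptide, bacterial display in this document: peptide library displayed on the E. coli surface as eCPX fusions, selected cells deep-sequenced, score is each peptide's frequency after selection divided by its frequency in the input.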
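For phosphorylation enrichment, bacterial display in this document: 11-residue human phosphosite peptides and single-mutation variants displayed on the E. coli surface, counted by deep sequencing, each peptide's frequency after selection divided by its frequency in the unselected input library; frequency after pTyr selection over input frequency; kinase dosed for 20-30% of maximal phosphorylation in three min.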

Chain of FGFR1 (P11362 whole entry, looked up): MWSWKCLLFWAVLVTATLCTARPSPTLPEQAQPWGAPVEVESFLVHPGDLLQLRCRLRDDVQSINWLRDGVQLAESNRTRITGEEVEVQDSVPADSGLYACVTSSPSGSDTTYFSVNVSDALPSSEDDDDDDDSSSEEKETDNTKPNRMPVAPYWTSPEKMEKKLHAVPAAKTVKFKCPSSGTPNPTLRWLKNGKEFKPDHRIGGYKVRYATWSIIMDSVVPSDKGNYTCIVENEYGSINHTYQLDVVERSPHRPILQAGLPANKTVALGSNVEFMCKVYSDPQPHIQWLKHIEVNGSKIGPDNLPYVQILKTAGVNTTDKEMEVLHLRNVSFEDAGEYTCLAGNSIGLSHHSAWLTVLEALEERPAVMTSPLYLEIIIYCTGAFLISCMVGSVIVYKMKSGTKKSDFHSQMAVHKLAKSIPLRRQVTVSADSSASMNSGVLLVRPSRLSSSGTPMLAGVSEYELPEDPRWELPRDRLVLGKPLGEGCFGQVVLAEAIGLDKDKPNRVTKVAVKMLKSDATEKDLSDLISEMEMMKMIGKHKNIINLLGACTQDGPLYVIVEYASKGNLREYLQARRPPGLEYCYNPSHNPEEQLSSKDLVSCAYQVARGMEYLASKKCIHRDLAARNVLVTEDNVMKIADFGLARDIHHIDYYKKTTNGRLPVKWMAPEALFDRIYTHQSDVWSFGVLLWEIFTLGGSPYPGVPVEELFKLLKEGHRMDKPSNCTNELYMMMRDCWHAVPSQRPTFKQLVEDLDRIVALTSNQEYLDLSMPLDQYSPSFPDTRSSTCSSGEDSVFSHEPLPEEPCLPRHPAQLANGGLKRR
Chain of Fes (P07332 whole entry, looked up): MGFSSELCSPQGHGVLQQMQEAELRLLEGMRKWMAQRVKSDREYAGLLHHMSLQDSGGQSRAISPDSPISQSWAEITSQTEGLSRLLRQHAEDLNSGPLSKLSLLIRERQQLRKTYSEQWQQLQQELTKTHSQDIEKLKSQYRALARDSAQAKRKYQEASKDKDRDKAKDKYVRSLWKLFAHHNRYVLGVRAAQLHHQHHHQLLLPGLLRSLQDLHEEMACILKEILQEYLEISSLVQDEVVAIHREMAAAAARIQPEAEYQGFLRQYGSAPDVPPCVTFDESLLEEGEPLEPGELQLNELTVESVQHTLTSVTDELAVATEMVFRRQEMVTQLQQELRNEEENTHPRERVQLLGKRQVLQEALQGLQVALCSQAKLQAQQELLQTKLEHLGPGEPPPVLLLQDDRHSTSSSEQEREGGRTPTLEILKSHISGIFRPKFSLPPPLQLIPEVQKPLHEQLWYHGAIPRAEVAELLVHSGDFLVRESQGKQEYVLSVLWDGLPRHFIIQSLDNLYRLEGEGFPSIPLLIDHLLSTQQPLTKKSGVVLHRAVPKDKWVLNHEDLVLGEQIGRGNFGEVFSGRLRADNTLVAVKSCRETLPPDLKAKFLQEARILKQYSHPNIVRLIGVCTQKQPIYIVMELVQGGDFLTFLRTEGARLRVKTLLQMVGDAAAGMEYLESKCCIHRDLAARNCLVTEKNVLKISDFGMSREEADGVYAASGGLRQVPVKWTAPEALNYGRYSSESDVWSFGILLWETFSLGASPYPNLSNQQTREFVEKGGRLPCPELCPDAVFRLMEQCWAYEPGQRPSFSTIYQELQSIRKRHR

Sequence	phosphorylation enrichment (AncSZ)	phosphorylation enrichment (EPHB1)	phosphorylation enrichment (EPHB2)	phosphorylation enrichment (FGFR1)	phosphorylation enrichment (FGFR3)	phosphorylation enrichment (Fer (mouse))	phosphorylation enrichment (Fes)	phosphorylation enrichment (Fyn)	phosphorylation enrichment (Hck)	phosphorylation enrichment (Jak2)	phosphorylation enrichment (MERTK)	phosphorylation enrichment (c-Abl (mouse))	phosphorylation enrichment (c-Src)	SH2 binding enrichment (Grb2 SH2)	SH2 binding enrichment (SHP2-C SH2)	SH2 binding enrichment (c-Src SH2)
QDLTDYLMKIL [ACTA2_Y190_R185Q]	1.01	0.523	0.772	0.807	0.698	0.558	1.55	0.657	0.916	1.34	0.809	1.13	0.546	1.33	1.23	0.861
QEEPEYWDQET [HLA-A_Y83_G80E]	2.08	1.08	0.793	0.897	1.43	0.902	1.95	0.943	0.699	2	0.384	0.907	0.823	0.798	0.476	0.491
QEGPEYWDGNT [HLA-B_Y83_R86G]	1.93	0.762	0.959	1.11	1.56	0.533	1.97	0.548	0.833	1.98	0.709	1.08	0.854	0.908	0.653	0.367
QEGPEYWDQET [HLA-A_Y83]	1.82	0.809	0.533	0.816	1.16	0.546	1.79	0.739	0.73	1.94	0.66	0.907	0.825	0.819	0.354	0.588
QFKGKYLAKHN [CASK_Y712_D710G_YF]	1.2	0.49	0.527	0.498	0.327	0.441	0.616	0.415	0.376	0.855	0.632	0.467	0.404	1.29	1.16	1.16
QFQEKYKQVEQ [HCN4_Y531_YF]	1.27	0.663	0.95	0.699	0.706	0.63	1.29	0.564	0.882	2.09	0.559	0.913	0.679	0.624	0.876	0.603
QGIIIYKAAFF [SLC25A4_Y187_R188K_YF]	1.5	1.21	0.723	0.798	0.852	0.721	1.36	0.569	0.526	1.05	0.439	1.1	0.917	1.36	0.446	0.373
QKNVSYVSTVS [TASOR_Y1043]	0.815	0.285	1.75	0.405	0.506	0.403	0.514	0.532	0.47	0.401	0.509	0.38	0.335	0.679	0.891	0.26
QLPRGYISIPV [BAG3_Y205]	0.789	0.698	0.722	0.482	0.744	0.642	0.974	0.839	0.718	0.881	0.612	0.867	0.592	0.736	0.993	0.887
QLQVFYATRDQ [MIPEP_Y579_L582R]	1.27	0.787	0.805	0.86	1	0.59	1.71	0.881	1.14	1.96	0.567	1.2	0.977	0.904	1.25	0.659
QMVGMYASFFM [AVPR2_Y124_S127F_YF]	1.88	3.06	2.27	0.676	1.5	5.31	2.03	9.8	5.82	2.03	5.38	4.72	8.13	0.642	0.782	0.602
QNTGDDFDLFG [PTPN11_Y62_Y62D_YF]	1.7	0.599	1.02	0.936	1.1	0.7	1.75	0.54	0.748	1.6	0.634	1.11	0.689	0.768	0.442	0.402
QNTVDYYDLYG [PTPN11_Y62_G60V]	2.72	4.44	3.38	18.4	15.4	1.1	1.66	6.01	6.03	2.63	1.33	1.38	5.35	0.892	0.502	0.816
QQLQGYVPSNF [FRK_Y99_I100V_YF]	0.699	0.653	0.664	0.475	0.779	0.584	1.07	0.479	0.802	1.52	0.75	1.13	0.904	1.03	0.64	0.659
QRAADYFSQQM [GBP6_Y333_YF]	1	0.469	0.57	0.558	0.634	0.491	0.921	0.546	0.488	0.698	0.352	0.586	0.687	0.789	0.353	0.338
QRALLYEDALY [UNC13D_Y56]	2.17	12.3	12.3	0.861	0.975	17.1	2.05	7.7	7.73	1.08	5.12	1.04	6.09	0.825	0.542	0.843
QSSALYEDCYL [ASS1_Y83_R86C]	1.82	12.4	7.55	0.788	1.02	16.9	2.95	3	1.84	1.5	3.43	1.35	3.61	0.863	0.514	0.86

Sequence	phosphorylation enrichment (AncSZ)	phosphorylation enrichment (EPHB1)	phosphorylation enrichment (EPHB2)	phosphorylation enrichment (FGFR1)	phosphorylation enrichment (FGFR3)	phosphorylation enrichment (Fer (mouse))	phosphorylation enrichment (Fes)	phosphorylation enrichment (Fyn)	phosphorylation enrichment (Hck)	phosphorylation enrichment (Jak2)	phosphorylation enrichment (MERTK)	phosphorylation enrichment (c-Abl (mouse))	phosphorylation enrichment (c-Src)	SH2 binding enrichment (Grb2 SH2)	SH2 binding enrichment (SHP2-C SH2)	SH2 binding enrichment (c-Src SH2)
QTEAEYRFIFM [PTPN11_Y511_Q510E_YF]	1.29	0.59	0.762	1.46	1.42	0.847	1.32	0.511	0.626	1.24	0.618	0.912	0.525	0.643	0.39	0.364
QTEAEYRFIYM [PTPN11_Y511_Q510E]	1.55	1.09	0.65	4.4	3.09	1.11	1.86	0.828	0.886	1.51	0.641	1.26	0.878	0.7	0.553	0.423
QTEAQYRFIYM [PTPN11_Y511]	1.77	0.835	0.782	1.65	1.54	1.09	1.29	0.634	0.542	1.56	0.667	1.5	1.23	0.563	0.744	0.244
QTLTDYDIRFY [CSNK2A1_Y131]	1.27	0.825	0.72	0.62	0.84	0.586	1.27	0.552	0.526	1.18	0.484	0.913	0.603	0.795	0.775	0.548
QYKDKYLAKHN [CASK_Y712]	0.401	0.501	0.402	0.526	0.663	0.349	0.927	0.436	0.207	0.605	0.283	0.458	0.308	0.648	0.798	1.02
RAEAQYLLVSN [LRIG1_Y1054]	0.897	0.639	0.551	2.61	1.78	0.43	0.761	0.466	0.493	0.933	0.681	0.665	0.648	0.884	0.62	0.431
RAMRRYLERGE [ERBB3_Y680]	0.722	0.719	0.563	0.636	0.679	0.686	0.576	0.608	0.711	0.607	0.61	0.615	0.455	0.716	0.554	0.411
RDEHGYISRCF [HSPB1_Y133_Q128R]	1.49	0.789	1.15	0.722	1.17	0.734	1.65	0.825	0.755	1.53	0.565	1.23	0.675	0.717	0.455	0.45
REGAKYVSHDA [ASS1_Y113_G117D]	1.4	0.508	0.423	0.648	0.739	0.767	0.988	0.655	0.553	0.886	0.833	0.75	0.565	0.678	0.452	0.389
REIIAYQPYGK [PRKCG_Y529_P524R]	0.83	0.429	0.617	0.329	0.415	0.357	0.721	0.625	0.563	0.531	0.294	0.467	0.405	0.833	0.538	0.808
RFLRGYRQDAY [HLA-A_Y137]	1.15	0.43	0.432	0.677	0.664	0.483	0.827	0.647	0.764	0.927	1.2	0.922	1.14	1.1	0.556	0.628
RGGWAYVLHPT [TRMT61A_Y67_V66A]	1.34	0.711	0.816	0.663	0.698	0.611	1.51	0.505	0.509	1.1	0.52	0.93	0.671	0.905	0.654	0.437
RGKDSYETSKL [SPP1_Y225_Q229K]	1.26	0.983	0.678	0.613	0.788	0.699	0.986	0.695	0.669	1.07	0.62	1.49	0.571	1.03	0.581	0.388
RGLQVYHRRNA [LRP2_Y2010]	1.41	0.755	0.86	1.1	0.889	0.803	1.05	0.964	0.783	1.2	1.2	0.957	1.49	0.674	0.604	0.486
RGRSTCYWPRP [GAGE12J_Y9_Y9C]	1.06	0.688	0.6	0.704	0.981	0.582	0.756	0.599	0.736	0.655	0.732	0.623	0.816	0.642	0.714	0.658
RHFVFYFSFLL [PTEN_Y177_R173H_YF]	1.26	0.547	1.44	0.496	0.553	0.18	0.867	0.538	0.391	0.607	0.357	0.703	0.653	1.88	0.962	1.4

From the supplement of paper PMC10065799, “High-throughput profiling of sequence recognition by tyrosine kinases and SH2 domains using bacterial peptide display” (eLife, 2023)
